Here are results for 1 molecule from article PMC10397247.

Common to all, as to assay: two-hybrid library CCNG1;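 note: natural log of median RNA to DNA barcode read ratio; higher means stronger binding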
In one assay the target is T1, 4H370-bA.
T1 chain: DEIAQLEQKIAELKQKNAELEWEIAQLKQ

For the next assay, the target named is T2, 4H797-bA.
T2 chain: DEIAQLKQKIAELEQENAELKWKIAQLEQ

For another assay, the target named is T3, 4H462-bA.
T3 chain: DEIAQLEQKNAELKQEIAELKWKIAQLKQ

For the next assay, the target named is T4, 4H72-bA.
T4 chain: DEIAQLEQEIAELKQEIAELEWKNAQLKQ

A further assay deals with T5, 4H568-bA.
T5 chain: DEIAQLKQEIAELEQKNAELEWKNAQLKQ

In another assay the target is T6, 4H3606-bA.
T6 chain: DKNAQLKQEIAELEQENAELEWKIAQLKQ

In a further assay the target is T7, 4H918-bA.
T7 chain: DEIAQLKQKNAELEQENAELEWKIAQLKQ

For the next assay, the target named is T8, 4H2697-bA.
T8 chain: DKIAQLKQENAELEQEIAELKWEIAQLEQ

For the next assay, the target named is T9, 4H607-bA.
T9 chain: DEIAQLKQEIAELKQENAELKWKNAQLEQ

The next assay deals with T10, 4H3782-bA.
T10 chain: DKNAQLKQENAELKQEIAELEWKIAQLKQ

In a further assay the target is T11, 4H883-bA.
T11 chain: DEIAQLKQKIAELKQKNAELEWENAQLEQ

The next assay deals with T12, 4H4001-bA.
T12 chain: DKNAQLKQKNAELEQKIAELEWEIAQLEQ

For the next assay, the target named is T13, 4H953-bA.
T13 chain: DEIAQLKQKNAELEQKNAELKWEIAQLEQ

Another assay concerns the target T14, 4H2667-bA.
T14 chain: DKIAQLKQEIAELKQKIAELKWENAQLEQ

For the next assay, the target named is T15, 4H3843-bA.
T15 chain: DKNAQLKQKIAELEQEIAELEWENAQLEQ

In another assay the target is T16, 4H967-bA.
T16 chain: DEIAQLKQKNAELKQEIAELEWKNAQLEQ

The next assay addresses T17, 4H2610-bA.
T17 chain: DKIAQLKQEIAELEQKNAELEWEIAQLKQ

In another assay the target is T18, 4H3189-bA.
T18 chain: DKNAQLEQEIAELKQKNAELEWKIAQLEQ

For another assay, the target named is T19, 4H331-bA.
T19 chain: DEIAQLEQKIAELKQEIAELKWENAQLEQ

The next assay addresses T20, 4H687-bA.
T20 chain: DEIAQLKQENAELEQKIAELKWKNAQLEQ

With DKIAQLKQEIAELEQKNAELEWEIAQLKQ [4H2610-bA], the interaction score with 4H370-bA is -1.17; with 4H797-bA, -0.486; with 4H462-bA, 1.76; in the assay with 4H72-bA, -0.563; in the assay with 4H568-bA, -0.602; in the assay with 4H3606-bA, 0.322. Besides, the interaction score in the assay with 4H918-bA is 1.13; in the assay with 4H2697-bA, 0.713; with 4H607-bA, -1.15; in the assay with 4H3782-bA, -0.515; with 4H883-bA, 0.538; with 4H4001-bA, 0.0746. Further, the interaction score was 0.322 with 4H953-bA; 0.718 in the assay with 4H2667-bA; 0.444 with 4H3843-bA; -1.02 in the assay with 4H967-bA; -0.2 with 4H2610-bA; -0.366 with 4H3189-bA. Also, the interaction score with 4H331-bA was -0.211; with 4H687-bA, -0.571.
